How the values were obtained:
[1] = biological target: T1, GPNMB (CG56972) as expressed by human cell lines (human, UniProt Q14956 23-492); experiment: FACS on WSU-NH2 cells, antibody 1 ug/mL
T1 construct: Endogenous or transfected full-length protein on cells (FACS, killing assays) or in cell lysates (immunoprecipitation, blot); also called native GPNMB protein
T1 sequence: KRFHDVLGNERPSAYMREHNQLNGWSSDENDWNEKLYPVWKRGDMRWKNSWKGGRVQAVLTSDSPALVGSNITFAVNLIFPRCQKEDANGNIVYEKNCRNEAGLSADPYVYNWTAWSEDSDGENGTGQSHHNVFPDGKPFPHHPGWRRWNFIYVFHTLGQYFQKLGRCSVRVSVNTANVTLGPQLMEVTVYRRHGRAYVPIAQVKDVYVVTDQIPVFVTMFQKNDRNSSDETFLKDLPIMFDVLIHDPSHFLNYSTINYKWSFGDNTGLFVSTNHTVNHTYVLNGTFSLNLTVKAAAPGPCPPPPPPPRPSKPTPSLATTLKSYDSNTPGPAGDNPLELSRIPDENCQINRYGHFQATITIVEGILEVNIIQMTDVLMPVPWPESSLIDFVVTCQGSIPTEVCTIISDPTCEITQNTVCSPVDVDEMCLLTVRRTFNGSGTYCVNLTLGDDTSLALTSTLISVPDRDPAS
Method: (§1) Lymphoma or leukemia derived cells were washed twice with ice-cold FACS buffer and resuspended at 1 million cells per assay tube. […] Cells were then washed 2-3 times and resuspended in 1 mL of ice-cold FACS buffer. R-PE-conjugated goat anti-human antibody at 1:100 dilution was added and cells were incubated on ice for 30 min. Cells were washed 3 times with 1 mL of ice-cold FACS buffer, fixed with 0.5-1 mL of 1% formaldehyde in PBS and analyzed by Flow Cytometry.

[2] = biological target: T1, GPNMB (CG56972) as expressed by human …; experiment: FACS on Karpas 299 cells, antibody 1 ug/mL
Method: as §1

[3] = biological target: T1, GPNMB (CG56972) as expressed by human …; experiment: FACS on SK-N-SH cells, CR011 10 ug/mL
Method: (§2) Quantitative analysis of CG56972 expression on the surface of cell lines was determined by flow cytometry (FACS). […] Cells were fixed in 1% paraformaldehyde/PBS and examined on a Becton Dickinson FACSCalibur flow cytometer. Data analysis was performed with Becton Dickinson Cell Quest software version 3.3 and the geometric mean fluorescence intensity ratio (GMR) was determined for each cell type.

[4] = biological target: T1, GPNMB (CG56972) as expressed by human …; experiment: FACS on D534-MG cells, CR011 10 ug/mL
Method: as §2

[5] = biological target: T1, GPNMB (CG56972) as expressed by human …; experiment: FACS on SK-Mel 24 cells
[6] = biological target: T1, GPNMB (CG56972) as expressed by human …; experiment: FACS on DEL cells, antibody 1 ug/mL
Method: as §1

[7] = biological target: T1, GPNMB (CG56972) as expressed by human …; experiment: FACS on ML-2 cells, antibody 1 ug/mL
Method: as §1

[8] = biological target: T1, GPNMB (CG56972) as expressed by human …; experiment: FACS on G361 cells
[9] = biological target: T1, GPNMB (CG56972) as expressed by human …; experiment: FACS on SU-DHL-4 cells, antibody 1 ug/mL
[10] = biological target: T1, GPNMB (CG56972) as expressed by human …; experiment: FACS on SF-268 cells, CR011 10 ug/mL
Method: as §2
Geometric Mean ratios (GMR) were determined by flow cytometric analysis.

[11] = biological target: T2, Recombinant human GPNMB extra-cellular domain (ECD) with a C-terminus V5-HIS tag (human, UniProt Q14956 23-492); experiment: Biacore, mAb captured on protein A
T2 construct: Expressed in HEK293; also called GPNMB-V5His; GPNMB-soluble
T2 sequence: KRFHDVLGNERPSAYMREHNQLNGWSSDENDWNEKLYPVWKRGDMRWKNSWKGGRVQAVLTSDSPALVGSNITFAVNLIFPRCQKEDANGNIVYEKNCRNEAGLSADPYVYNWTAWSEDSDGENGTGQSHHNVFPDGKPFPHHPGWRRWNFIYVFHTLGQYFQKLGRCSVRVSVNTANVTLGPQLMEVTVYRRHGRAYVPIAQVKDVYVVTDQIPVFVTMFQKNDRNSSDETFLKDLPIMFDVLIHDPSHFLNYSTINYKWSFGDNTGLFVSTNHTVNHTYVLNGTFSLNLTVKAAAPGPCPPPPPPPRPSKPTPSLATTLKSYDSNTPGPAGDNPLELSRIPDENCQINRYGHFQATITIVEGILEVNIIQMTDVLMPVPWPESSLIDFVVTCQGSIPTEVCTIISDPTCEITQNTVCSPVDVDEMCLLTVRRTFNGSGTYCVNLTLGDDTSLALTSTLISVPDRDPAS
Method: Certain Hybridoma cell supernatants (29) were analyzed for binding to GPNMB by BiaCore® 2000 biosensor equipped with a research-grade CM5 sensor chip. A 1:25 dilution of cell supernatant was passed over a protein A surface for 5 min followed by washing the surface for 10 mins. […] GPNMB binding data for each mAb was normalized for the amount of mAb captured on each surface. Normalized, drift corrected responses were also measured. The sensorgrams were fit to a simple 1:1 kinetic model.

[12] = biological target: T1, GPNMB (CG56972) as expressed by human …; experiment: FACS on HL-60 cells, antibody 1 ug/mL
[13] = biological target: T1, GPNMB (CG56972) as expressed by human …; experiment: FACS on SUP-M2 cells, antibody 1 ug/mL
Method: as §1

[14] = biological target: T1, GPNMB (CG56972) as expressed by human …; experiment: FACS on SIG-M5 cells, antibody 1 ug/mL
Method: as §1

[15] = biological target: T1, GPNMB (CG56972) as expressed by human …; experiment: FACS on KG-1 cells, antibody 1 ug/mL
Method: as §1

[16] = biological target: T1, GPNMB (CG56972) as expressed by human …; experiment: FACS on CCRF-CEM cells, antibody 1 ug/mL
Method: as §1

[17] = biological target: T1, GPNMB (CG56972) as expressed by human …; experiment: FACS on THP-1 cells, antibody 1 ug/mL
Method: as §1

[18] = biological target: T1, GPNMB (CG56972) as expressed by human …; experiment: FACS on SF-295 cells, CR011 10 ug/mL
Method: as §2

[19] = biological target: T1, GPNMB (CG56972) as expressed by human …; experiment: FACS on PL-21 cells, antibody 1 ug/mL
Method: as §1

[20] = biological target: T1, GPNMB (CG56972) as expressed by human …; experiment: FACS on U-251 cells, CR011 10 ug/mL
Method: as §2

[21] = biological target: T1, GPNMB (CG56972) as expressed by human …; experiment: FACS on KG1a cells, antibody 1 ug/mL
Method: as §1

[22] = biological target: T1, GPNMB (CG56972) as expressed by human …; experiment: FACS on AML-193 cells, antibody 1 ug/mL
[23] = biological target: T1, GPNMB (CG56972) as expressed by human …; experiment: FACS on U937 cells, antibody 1 ug/mL
Method: as §1

B1: CR011 mAb 1.15.1 (IgG2) (antibody)
heavy: QVQLQESGPGLVKPSQTLSLTCTVSGGSISSFNYYWSWIRHHPGKGLEWIGYIYYSGSTYSNPSLKSRVTISVDTSKNQFSLTLSSVTAADTAVYYCARGYNWNYFDYWGQGTLVTVSSASTKGPSVFPLAPCSRSTSESTAALGCLVKDYFPEPVTVSWNSGALTSGVHTFPAVLQSSGLYSLSSVVTVPSSNFGTQTYTCNVDHKPSNTKVDKTVERKCCVECPPCPAPPVAGPSVFLFPPKPKDTLMISRTPEVTCVVVDVSHEDPEVQFNWYVDGVEVHNAKTKPREEQFNSTFRVVSVLTVVHQDWLNGKEYKCKVSNKGLPAPIEKTISKTKGQPREPQVYTLPPSREEMTKNQVSLTCLVKGFYPSDIAVEWESNGQPENNYKTTPPMLDSDGSFFLYSKLTVDKSRWQQGNVFSCSVMHEALHNHYTQKSLSLSPGK
VL: not shown
notes: also called CR011.1.15.1; CR011 IgG2
B1 was tested, and the “Geo Mean Ratio” value [1] was 1 ratio, the “Geo Mean Ratio” value [2] was 10.7 ratio and the “CR011 Fold Shift (GMR)” value [3] was 2 fold. For the same binder, the “CR011 Fold Shift (GMR)” value [4] was 2.3 fold, the “Geo Mean Ratio (relative to isotype)” value [5] was 1.9 ratio and the “Geo Mean Ratio” value [6] was 7.9 ratio. For the same binder, the “Geo Mean Ratio” value [7] was 2.1 ratio, the “Geo Mean Ratio (relative to isotype)” value [8] was 8 ratio and the “Geo Mean Ratio” value [9] was 1.8 ratio. The “CR011 Fold Shift (GMR)” value [10] was 1.5 fold, the Kd [11] was 52 nM and the koff [11] was 0.000855 s⁻¹. For the same binder, the kon [11] was 16500 M⁻¹ s⁻¹, the “Geo Mean Ratio” value [12] was 2.3 ratio and the “Geo Mean Ratio” value [13] was 4.8 ratio. For the same binder, the “Geo Mean Ratio” value [14] was 2.9 ratio, the “Geo Mean Ratio” value [15] was 6.9 ratio and the “Geo Mean Ratio” value [16] was 10.9 ratio. The “Geo Mean Ratio” value [17] was 6.1 ratio, the “CR011 Fold Shift (GMR)” value [18] was 1.8 fold and the “Geo Mean Ratio” value [19] was 12 ratio. For the same binder, the “CR011 Fold Shift (GMR)” value [20] was 1.9 fold, the “Geo Mean Ratio” value [21] was 2.7 ratio and the “Geo Mean Ratio” value [22] was 1.8 ratio. For the same binder, the “Geo Mean Ratio” value [23] was 17.3 ratio.

— patent US20130244255A1 (published 2013)
